Literature values in paper PMC3931689.

Target: Protein phosphatase 1 (Mus musculus) (UniProt P62137)
UniProt P62137, sequence (P62137 2-330): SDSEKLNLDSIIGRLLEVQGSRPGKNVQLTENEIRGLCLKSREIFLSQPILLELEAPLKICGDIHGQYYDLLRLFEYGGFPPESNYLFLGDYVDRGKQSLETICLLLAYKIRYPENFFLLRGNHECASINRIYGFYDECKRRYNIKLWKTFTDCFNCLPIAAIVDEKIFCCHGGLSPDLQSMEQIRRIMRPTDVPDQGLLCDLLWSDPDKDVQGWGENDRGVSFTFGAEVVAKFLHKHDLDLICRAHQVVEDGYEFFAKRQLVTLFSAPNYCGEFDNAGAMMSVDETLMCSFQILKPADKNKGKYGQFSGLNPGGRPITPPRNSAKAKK

In the case of Inhibitor-1 (from UniProt Q9ERT9), the Ki is listed as 1 nM.
